From article PMC2756588

T1: Lsb1, P53281
T1 sequence (P53281 45-122, looked up): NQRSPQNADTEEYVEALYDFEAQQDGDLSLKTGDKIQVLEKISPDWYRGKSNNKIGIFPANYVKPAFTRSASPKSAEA

T2: Bud14, P27637
T2 sequence (P27637 247-328, looked up): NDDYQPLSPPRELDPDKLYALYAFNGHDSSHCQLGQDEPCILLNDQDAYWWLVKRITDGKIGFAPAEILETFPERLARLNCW

T3: Bbc1, P47068
T3 sequence (P47068 1-78, looked up): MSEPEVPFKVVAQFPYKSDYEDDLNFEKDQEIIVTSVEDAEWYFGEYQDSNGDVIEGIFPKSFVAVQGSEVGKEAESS

T4: Hof1, Q05080
T4 sequence (Q05080 590-669, looked up): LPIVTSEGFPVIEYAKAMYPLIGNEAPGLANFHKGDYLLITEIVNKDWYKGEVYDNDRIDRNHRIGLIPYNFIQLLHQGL

T5: Sla1-3, P32790
T5 sequence (P32790 344-424, looked up): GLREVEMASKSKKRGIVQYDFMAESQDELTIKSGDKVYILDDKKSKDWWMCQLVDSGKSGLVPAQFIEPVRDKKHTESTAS

T6: Pin3, Q06449
T6 sequence (Q06449 53-122, looked up): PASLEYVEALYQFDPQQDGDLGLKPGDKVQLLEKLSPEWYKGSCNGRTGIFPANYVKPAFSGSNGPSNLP

T7: Fus1, P11710
T7 sequence (P11710 432-512, looked up): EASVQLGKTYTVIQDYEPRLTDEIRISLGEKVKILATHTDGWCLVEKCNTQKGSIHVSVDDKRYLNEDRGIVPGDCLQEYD

T8: Cyk3, Q07533
T8 sequence (Q07533 1-83, looked up): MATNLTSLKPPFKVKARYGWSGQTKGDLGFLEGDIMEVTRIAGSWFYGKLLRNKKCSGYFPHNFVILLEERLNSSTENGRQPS

T9: Boi2, P39969
T9 sequence (P39969 32-116, looked up): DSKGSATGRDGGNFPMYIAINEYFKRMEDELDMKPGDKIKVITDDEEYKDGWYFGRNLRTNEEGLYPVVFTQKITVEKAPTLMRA

T10: Abp1, P15891
T10 sequence (P15891 535-592, looked up): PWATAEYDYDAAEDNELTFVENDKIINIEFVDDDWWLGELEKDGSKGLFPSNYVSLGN

T11: Hse1, P38753
T11 sequence (P38753 208-285, looked up): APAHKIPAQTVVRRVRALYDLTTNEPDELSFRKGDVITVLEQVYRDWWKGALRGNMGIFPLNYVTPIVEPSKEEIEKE

T12: Bzz1-1, P38822
T12 sequence (P38822 478-572, looked up): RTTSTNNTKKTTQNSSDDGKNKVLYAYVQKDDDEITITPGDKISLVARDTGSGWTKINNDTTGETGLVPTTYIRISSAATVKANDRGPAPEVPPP

T13: Boi1, P38041
T13 sequence (P38041 1-86, looked up): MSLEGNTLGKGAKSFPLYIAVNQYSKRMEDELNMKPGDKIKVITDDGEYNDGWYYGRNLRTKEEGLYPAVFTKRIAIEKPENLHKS

T14: Sla1-2, P32790
T14 sequence (P32790 60-140, looked up): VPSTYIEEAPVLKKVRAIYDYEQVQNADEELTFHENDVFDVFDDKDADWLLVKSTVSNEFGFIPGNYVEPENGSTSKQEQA

T15: Nbp2, Q12163
T15 sequence (Q12163 103-180, looked up): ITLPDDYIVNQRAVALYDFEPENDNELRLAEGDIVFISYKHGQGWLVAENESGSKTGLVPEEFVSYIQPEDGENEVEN

T16: Bzz1-2, P38822
T16 sequence (P38822 568-633, looked up): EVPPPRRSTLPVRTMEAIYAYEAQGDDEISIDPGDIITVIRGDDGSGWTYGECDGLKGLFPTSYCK

T17: Lsb3, P43603
T17 sequence (P43603 385-451, looked up): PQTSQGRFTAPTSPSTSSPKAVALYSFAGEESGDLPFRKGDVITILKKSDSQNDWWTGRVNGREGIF

T18: Lsb4, P32793
T18 sequence (P32793 402-468, looked up): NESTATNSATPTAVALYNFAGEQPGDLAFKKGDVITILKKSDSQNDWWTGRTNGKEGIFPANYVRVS

T19: Pex13, P80667
T19 sequence (P80667 295-386, looked up): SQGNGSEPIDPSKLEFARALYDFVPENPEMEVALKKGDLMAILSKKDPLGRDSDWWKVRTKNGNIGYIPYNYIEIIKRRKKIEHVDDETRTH

T20: Cdc25, P04821
T20 sequence (P04821 50-136, looked up): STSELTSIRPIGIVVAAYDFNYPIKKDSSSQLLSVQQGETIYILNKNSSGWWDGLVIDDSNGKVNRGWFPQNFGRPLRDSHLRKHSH

T21: Myo5, Q04439
T21 sequence (Q04439 1072-1160, looked up): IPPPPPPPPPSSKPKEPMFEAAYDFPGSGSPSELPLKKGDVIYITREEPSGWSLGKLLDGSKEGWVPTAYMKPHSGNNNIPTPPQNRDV


These binders were tested against T1, Lsb1, P53281 (assay: SPOT array). Conditions: median of control spots 388.

SPOT intensity	Binder
0	DFTLPPPPPPPGLDE
0	FTLPPPPPPPGLDEL
0	DTFLPPPPPPPSNFE

What follows are binders tested against T2, Bud14, P27637 (assay: SPOT array). Conditions: median of control spots 956.

SPOT intensity	Binder
0	DFTLPPPPPPPGLDE
0	FTLPPPPPPPGLDEL
0	DTFLPPPPPPPSNFE

What follows are binders tested against Sho1, P40073 (assay: SPOT array). Conditions: median of control spots 1148.
Chain of Sho1, P40073 (P40073 287-367): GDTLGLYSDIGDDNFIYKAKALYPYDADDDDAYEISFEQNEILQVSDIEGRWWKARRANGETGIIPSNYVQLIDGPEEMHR

SPOT intensity	Binder
0	DFTLPPPPPPPGLDE
0	FTLPPPPPPPGLDEL
0	DTFLPPPPPPPSNFE

The binders below were run against T3, Bbc1, P47068 (assay: SPOT array). Conditions: median of control spots 796.

SPOT intensity	Binder
0	DFTLPPPPPPPGLDE
0	FTLPPPPPPPGLDEL
0	DTFLPPPPPPPSNFE

Each binder was assayed against T4, Hof1, Q05080 (assay: SPOT array). Conditions: median of control spots 4086.

SPOT intensity	Binder
6	DFTLPPPPPPPGLDE
116	FTLPPPPPPPGLDEL
0	DTFLPPPPPPPSNFE

What follows are binders tested against Rvs167, P39743 (assay: SPOT array). Conditions: median of control spots 2707.
Chain of Rvs167, P39743 (P39743 419-482): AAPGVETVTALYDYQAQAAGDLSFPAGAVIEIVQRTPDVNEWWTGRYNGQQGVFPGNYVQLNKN

SPOT intensity	Binder
0	DFTLPPPPPPPGLDE
0	FTLPPPPPPPGLDEL
0	DTFLPPPPPPPSNFE

The binders below were run against T5, Sla1-3, P32790 (assay: SPOT array). Conditions: median of control spots 5475.

SPOT intensity	Binder
0	DFTLPPPPPPPGLDE
0	FTLPPPPPPPGLDEL
0	DTFLPPPPPPPSNFE

The binders below were run against T6, Pin3, Q06449 (assay: SPOT array). Conditions: median of control spots 2171.

SPOT intensity	Binder
0	DFTLPPPPPPPGLDE
0	FTLPPPPPPPGLDEL
0	DTFLPPPPPPPSNFE

The binders below were run against T7, Fus1, P11710 (assay: SPOT array). Conditions: median of control spots 1200.

SPOT intensity	Binder
0	DFTLPPPPPPPGLDE
0	FTLPPPPPPPGLDEL
0	DTFLPPPPPPPSNFE

What follows are binders tested against Bem1-2, P29366 (assay: SPOT array). Conditions: median of control spots 4347.
Chain of Bem1-2, P29366 (P29366 139-227): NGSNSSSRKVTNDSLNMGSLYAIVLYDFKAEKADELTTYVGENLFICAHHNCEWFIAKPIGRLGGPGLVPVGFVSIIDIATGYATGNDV

SPOT intensity	Binder
1	DFTLPPPPPPPGLDE
0	FTLPPPPPPPGLDEL
0	DTFLPPPPPPPSNFE

Each binder was assayed against T8, Cyk3, Q07533 (assay: SPOT array). Conditions: median of control spots 1451.

SPOT intensity	Binder
0	DFTLPPPPPPPGLDE
2	FTLPPPPPPPGLDEL
0	DTFLPPPPPPPSNFE

What follows are binders tested against T9, Boi2, P39969 (assay: SPOT array). Conditions: median of control spots 1161.

SPOT intensity	Binder
0	DFTLPPPPPPPGLDE
0	FTLPPPPPPPGLDEL
3	DTFLPPPPPPPSNFE

The binders below were run against T10, Abp1, P15891 (assay: SPOT array). Conditions: median of control spots 935.

SPOT intensity	Binder
0	DFTLPPPPPPPGLDE
0	FTLPPPPPPPGLDEL
0	DTFLPPPPPPPSNFE

What follows are binders tested against T11, Hse1, P38753 (assay: SPOT array). Conditions: median of control spots 1727.

SPOT intensity	Binder
0	DFTLPPPPPPPGLDE
0	FTLPPPPPPPGLDEL
0	DTFLPPPPPPPSNFE

Each binder was assayed against T12, Bzz1-1, P38822 (assay: SPOT array). Conditions: median of control spots 4446.

SPOT intensity	Binder
0	DFTLPPPPPPPGLDE
7	FTLPPPPPPPGLDEL
3	DTFLPPPPPPPSNFE

The binders below were run against T13, Boi1, P38041 (assay: SPOT array). Conditions: median of control spots 1162.

SPOT intensity	Binder
0	DFTLPPPPPPPGLDE
0	FTLPPPPPPPGLDEL
1	DTFLPPPPPPPSNFE

Each binder was assayed against Myo3, P36006 (assay: SPOT array). Conditions: median of control spots 468.

SPOT intensity	Binder
345	DFTLPPPPPPPGLDE
455	FTLPPPPPPPGLDEL
518	DTFLPPPPPPPSNFE

What follows are binders tested against Bem1-1, P29366 (assay: SPOT array). Conditions: median of control spots 4282.
Chain of Bem1-1, P29366 (P29366 55-141): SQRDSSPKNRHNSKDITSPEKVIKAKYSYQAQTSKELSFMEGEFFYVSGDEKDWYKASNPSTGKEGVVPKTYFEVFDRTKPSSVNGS

SPOT intensity	Binder
0	DFTLPPPPPPPGLDE
0	FTLPPPPPPPGLDEL
0	DTFLPPPPPPPSNFE

The binders below were run against T14, Sla1-2, P32790 (assay: SPOT array). Conditions: median of control spots 712.

SPOT intensity	Binder
0	DFTLPPPPPPPGLDE
0	FTLPPPPPPPGLDEL
0	DTFLPPPPPPPSNFE

Each binder was assayed against T15, Nbp2, Q12163 (assay: SPOT array). Conditions: median of control spots 357.

SPOT intensity	Binder
3	DFTLPPPPPPPGLDE
0	FTLPPPPPPPGLDEL
0	DTFLPPPPPPPSNFE

The binders below were run against T16, Bzz1-2, P38822 (assay: SPOT array). Conditions: median of control spots 4538.

SPOT intensity	Binder
0	DFTLPPPPPPPGLDE
0	FTLPPPPPPPGLDEL
0	DTFLPPPPPPPSNFE

These binders were tested against T17, Lsb3, P43603 (assay: SPOT array). Conditions: median of control spots 406.

SPOT intensity	Binder
0	DFTLPPPPPPPGLDE
0	FTLPPPPPPPGLDEL
0	DTFLPPPPPPPSNFE

The binders below were run against GST (assay: SPOT array). Conditions: median of control spots 978.

SPOT intensity	Binder
1	DFTLPPPPPPPGLDE
1	FTLPPPPPPPGLDEL
0	DTFLPPPPPPPSNFE

These binders were tested against T18, Lsb4, P32793 (assay: SPOT array). Conditions: median of control spots 397.

SPOT intensity	Binder
0	DFTLPPPPPPPGLDE
0	FTLPPPPPPPGLDEL
0	DTFLPPPPPPPSNFE

The binders below were run against T19, Pex13, P80667 (assay: SPOT array). Conditions: median of control spots 1341.

SPOT intensity	Binder
0	DFTLPPPPPPPGLDE
13	FTLPPPPPPPGLDEL
8	DTFLPPPPPPPSNFE

These binders were tested against T20, Cdc25, P04821 (assay: SPOT array). Conditions: median of control spots 969.

SPOT intensity	Binder
0	DFTLPPPPPPPGLDE
0	FTLPPPPPPPGLDEL
0	DTFLPPPPPPPSNFE

The binders below were run against T21, Myo5, Q04439 (assay: SPOT array). Conditions: median of control spots 471.

SPOT intensity	Binder
306	DFTLPPPPPPPGLDE
234	FTLPPPPPPPGLDEL
453	DTFLPPPPPPPSNFE
